Assay results published in publication PMC10311840, “Purification and characterization of inorganic pyrophosphatase for in vitro RNA transcription” (Biochemistry and cell biology = Biochimie et biologie …, 2022).
Several values for one entry are separate records, joined by “and”; a condition that tells them apart may be missing. Identical values can stand only once.

How the values were obtained:
[1] = target: the molecule itself; experiment: SEC-MALS; SEC-MALS-DLS; Superdex 200 Increase 10/300 GL; 355 umol/L affinity-purified iPPase injected in 500 uL; 25 C; 80 mmol/L Tris-HCl pH 7.5, 30 mmol/L MgCl2, 4 mmol/L spermidine, 20 mmol/L NaCl, 4 mmol/L DTT; self-association, dimer, tetramer and hexamer peaks
[2] = target: the molecule itself; experiment: SEC-SAXS; HPLC-SAXS at Diamond B21; 50 uL of 450 umol/L iPPase on Superdex 200 Increase 3.2/300 GL; dimer and tetramer peaks analysed, hexamer peak not usable; self-association

B1: yeast inorganic pyrophosphatase (enzyme)
chain: TYTTRQIGAKNTLEYKVYIEKDGKPVSAFHDIPLYADKENNIFNMVVEIPRWTNAKLEITKEETLNPIIQDTKKGKLRFVRNCFPHHGYIHNYGAFPQTWEDPNVSHPETKAVGDNDPIDVLEIGETIAYTGQVKQVKALGIMALLDEGETDWKVIAIDINDPLAPKLNDIEDVEKYFPGLLRATNEWFRIYKIPDGKPENQFAFSGEAKNKKYALDIIKETHDSWKQLIAGKSSDSKGIDLTNVTLPDTPTYSKAASDAIPPASPKADAPIDKSIDKWFFISGSV
notes: inorganic pyrophosphatase, product of the yeast gene IPP1, family 1 iPPase (EC 3.6.1.1); expressed from plasmid pET29b-IPP1-His; no cleavage is described; also called iPPase; yeast iPPase
- stoichiometry N [1]: 2 and 6
- stoichiometry N [2]: 4
